This passage reports Kd results from US20260265385A1 (ANAPTYSBIO, published 2026).

Test [1] concerns the target T1, recombinant cynomolgus IL-2Rβ (extracellular domain, Ala1-Thr215) (cynomolgus, UniProt Q38J85 27-240).
T1 construct: extracellular domain; Analyte in SPR; also called cynomolgus LL-2Rβ; Cyno IL-2RB
T1 sequence (looked up): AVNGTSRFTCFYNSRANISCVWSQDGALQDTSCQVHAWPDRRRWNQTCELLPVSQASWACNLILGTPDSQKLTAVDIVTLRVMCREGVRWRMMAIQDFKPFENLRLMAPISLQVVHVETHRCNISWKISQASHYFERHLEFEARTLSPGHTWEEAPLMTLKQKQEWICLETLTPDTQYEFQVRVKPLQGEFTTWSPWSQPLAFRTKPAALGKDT
Briefly: SPR, antibody captured on Protein A chip. The procedure:
(§1) Surface plasmon resonance (SPR) was used to determine the binding affinities. The M6-1625 and M10-1275 antibodies were captured onto a Cytiva Protein A Chip for 60 seconds at 0.5 μg/mL for 60 seconds. The antibodies were exposed to recombinant human LL-2Rβ or cynomolgus LL-2Rβ (corresponding to residues Ala1-Thr215 of the extracellular domains excluding the signal peptide) at typical concentrations ranging from 0.4 nM to 11 nM with typical 300 second associations and 1200 second dissociations using a BiacoreS200 instrument. Sensorgrams were fit globally using a 1:1 binding model in the Biacore T200 Evaluation Software to calculate on- and off-rates and KD values.

Test [2] has as its target T2, recombinant human IL-2Rβ (extracellular domain, Ala1-Thr215) (human, UniProt P14784 27-240).
T2 construct: extracellular domain; Analyte in SPR; Ala1-Thr215 is counted on the mature protein; also called human LL-2Rβ; Human IL-2RB
T2 sequence (looked up): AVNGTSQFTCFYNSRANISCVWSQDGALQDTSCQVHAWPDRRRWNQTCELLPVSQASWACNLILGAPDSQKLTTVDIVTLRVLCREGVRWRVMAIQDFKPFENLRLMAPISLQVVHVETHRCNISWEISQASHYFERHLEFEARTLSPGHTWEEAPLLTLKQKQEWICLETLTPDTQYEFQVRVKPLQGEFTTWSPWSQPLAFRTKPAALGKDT
As to the kind of experiment: SPR, antibody captured on Protein A chip. The procedure:
as §1

B1: APE14946 (antibody, V domains shown)
VH: QVQLVQSGAEVKKPGASVKVSCKASGYTFSRYWIEWVRQAPGQGLEWMGEILPGSGSINHNEKFQGRVTFTADTSTSTVYMELSSLRSEDTAVYFCTRHYGSFDYWGQGTTVTVSS
VL: DIQMTQSPSSLSASVGDRVTITCKASQNVGTDVAWYQQKPGKAPKSLIYSASYRYSGVPSRFSGSGSGTDFTLTISSLQPEDFATYFCHQYSSYPFTFGQGTKLEIKR
notes: M6-p1625 series
In the case of B1, the figures for the Kd in test [1] and in test [2] were 0.255 nM and 0.357 nM, respectively.

B2: APE15090 (antibody, V domains shown)
VH: QVQLVQSGAEVKKPGASVKVSCKASGYTFSRYWIEWVRQAPGQGLEWMGEILPGSGSIDHNEKFQGRVTMTRDTSTSTVYMELSSLRSEDTAVYYCTRHYGSFDYWGQGTTVTVSS
VL: DIQMTQSPSSLSASVGDRVTITCKASQNVGTDVAWYQQKPGKAPKSLIYSASYRYSGVPSRFSGSGSGTDFTLTISSLQPEDFATYFCHQYSSYPFTFGQGTKLEIKR
notes: M6-p1625 series
For the molecule B2, the Kd in test [1] is 0.44 nM; in test [2], 0.657 nM.

B3: APE15089 (antibody, V domains shown)
VH: QVQLVQSGAEVKKPGASVKVSCKASGYTFSRYWIEWVRQAPGQGLEWMGEILPGSGSINHNEKFQGRVTMTRDTSTSTVYMELSSLRSEDTAVYYCTRHYGSFDYWGQGTTVTVSS
VL: DIQMTQSPSSLSASVGDRVTITCKASQNVDTDVAWYQQKPGKAPKSLIYSASYRYSGVPSRFSGSGSGTDFTLTISSLQPEDFATYFCHQYSSYPFTFGQGTKLEIKR
notes: M6-p1625 series
Regarding B3, the figures for the Kd in test [1] and in test [2] were 9.39 nM and 1.04 nM, respectively.

B4: APE14949 (antibody, V domains shown)
VH: QVQLVQSGAEVKKPGASVKVSCKASGYTFSRYWIEWVRQAPGQGLEWMGEILPGSGSINHNEKFQGRVTFTADTSTSTVYMELSSLRSEDTAVYYCTRHYGSFDYWGQGTTVTVSS
VL: DIQMTQSPSSLSASVGDRVTITCKASQNVGTDVAWFQQKPGKAPKSLIYSASYRYNGVPSRFSGSGSGTDFTLTISSLQPEDFATYYCHQYSSYPFTFGQGTKLEIKR
notes: M6-p1625 series
Turning to B4, the figures for the Kd in test [1] and in test [2] were 1 nM and 1.5 nM, respectively.

B5: APE15087 (antibody, V domains shown)
VH: QVQLVQSGAEVKKPGASVKVSCKASGYTFSRYWIEWVRQAPGQGLEWMGEILPGSGSINHNEKFQGRVTMTRDTSTSTVYMELSSLRSEDTAVYYCTRHYGSFDYWGQGTTVTVSS
VL: DIQMTQSPSSLSASVGDRVTITCKASQNVGTEVAWYQQKPGKAPKSLIYSASYRYSGVPSRFSGSGSGTDFTLTISSLQPEDFATYFCHQYSSYPFTFGQGTKLEIKR
notes: M6-p1625 series
Take B5: the Kd was found to be 3.56 nM in test [1] and 4.31 nM in test [2].

B6: APE15092 (antibody, V domains shown)
VH: QVQLVQSGAEVKKPGASVKVSCKASGYTFSRYWIQWVRQAPGQGLEWMGEILPGSGSINHNEKFQGRVTMTRDTSTSTVYMELSSLRSEDTAVYYCTRHYGSFDYWGQGTTVTVSS
VL: DIQMTQSPSSLSASVGDRVTITCKASQNVGTDVAWYQQKPGKAPKSLIYSASYRYSGVPSRFSGSGSGTDFTLTISSLQPEDFATYFCHQYSSYPFTFGQGTKLEIKR
notes: M6-p1625 series
Take B6: the Kd in test [1] came to 0.126 nM.

B7: APE14947 (antibody, V domains shown)
VH: QVQLVQSGAEVKKPGASVKVSCKASGYTFSRYWIEWVRQAPGQGLEWMGEILPGSGSINHNEKFQGRVTFTADTSTSTVYMELSSLRSEDTAVYFCTRHYGSFDYWGQGTTVTVSS
VL: DIQMTQSPSSLSASVGDRVTITCKASQNVGTDVAWFQQKPGKAPKSLIYSASYRYNGVPSRFSGSGSGTDFTLTISSLQPEDFATYYCHQYSSYPFTFGQGTKLEIKR
notes: M6-p1625 series
As for B7, the Kd in test [1] is 0.977 nM; in test [2], 1.46 nM.

B8: APE15093 (antibody, V domains shown)
VH: QVQLVQSGAEVKKPGASVKVSCKASGYTFTRYWIEWVRQAPGQGLEWMGEILPGSGSINHNEKFQGRVTMTRDTSTSTVYMELSSLRSEDTAVYYCTRHYGSFDYWGQGTTVTVSS
VL: DIQMTQSPSSLSASVGDRVTITCKASQNVGTDVAWYQQKPGKAPKSLIYSASYRYSGVPSRFSGSGSGTDFTLTISSLQPEDFATYFCHQYSSYPFTFGQGTKLEIKR
notes: M6-p1625 series
B8: the Kd in test [1] was 0.189 nM.

B9: APE15086 (antibody, V domains shown)
VH: QVQLVQSGAEVKKPGASVKVSCKASGYTFSRYWIEWVRQAPGQGLEWMGEILPGSGSINHNEKFQGRVTMTRDTSTSTVYMELSSLRSEDTAVYYCTRHYGSFDYWGQGTTVTVSS
VL: DIQMTQSPSSLSASVGDRVTITCKASQNVGTDVAWYQQKPGKAPKSLIYSASYRYSGVPSRFSGSGSGTDFTLTISSLQPEDFATYFCQQYSSYPFTFGQGTKLEIKR
notes: M6-p1625 series
As for B9, the results for the Kd in test [1] and in test [2] were 0.25 nM and 0.305 nM, respectively.

B10: APE15088 (antibody, V domains shown)
VH: QVQLVQSGAEVKKPGASVKVSCKASGYTFSRYWIEWVRQAPGQGLEWMGEILPGSGSINHNEKFQGRVTMTRDTSTSTVYMELSSLRSEDTAVYYCTRHYGSFDYWGQGTTVTVSS
VL: DIQMTQSPSSLSASVGDRVTITCKASQNVGTNVAWYQQKPGKAPKSLIYSASYRYSGVPSRFSGSGSGTDFTLTISSLQPEDFATYFCHQYSSYPFTFGQGTKLEIKR
notes: M6-p1625 series
Regarding B10, the Kd in test [1] came out at 16.7 nM; in test [2], 16.4 nM.

B11: APE14950 (antibody, V domains shown)
VH: QVQLVQSGAEVKKPGASVKVSCKASGYTFSRYWIEWVRQAPGQGLEWMGEILPGSGSINHNEKFQGRVTMTRDTSTSTVYMELSSLRSEDTAVYYCTRHYGSFDYWGQGTTVTVSS
VL: DIQMTQSPSSLSASVGDRVTITCKASQNVGTDVAWYQQKPGKAPKSLIYSASYRYSGVPSRFSGSGSGTDFTLTISSLQPEDFATYFCHQYSSYPFTFGQGTKLEIKR
notes: M6-p1625 series
In the case of B11, the Kd amounted to 0.192 nM in test [1] and 0.252 nM in test [2].

B12: APE15278 (antibody, V domains shown)
VH: QVQLVQSGAEVKKPGASVKVSCKASGYTFSRYWIEWVRQAPGQGLEWMGEISPGVDTINHNEKFQGRVTMTRDTSTSTVYMELSSLRSEDTAVYYCTRHYGSFDYWGQGTTVTVSS
VL: DIQMTQSPSSLSASVGDRVTITCKASQNVGTDVAWYQQKPGKAPKSLIYSASYRYSGVPSRFSGSGSGTDFTLTISSLQPEDFATYFCHQYESYPFTFGQGTKLEIKR
notes: M6-p1625 series
In the case of B12, the results for the Kd in test [1] and in test [2] were 0.488 nM and 0.334 nM, respectively.

B13: APE14948 (antibody, V domains shown)
VH: QVQLVQSGAEVKKPGASVKVSCKASGYTFSRYWIEWVRQAPGQGLEWMGEILPGSGSINHNEKFQGRVTFTADTSTSTVYMELSSLRSEDTAVYYCTRHYGSFDYWGQGTTVTVSS
VL: DIQMTQSPSSLSASVGDRVTITCKASQNVGTDVAWYQQKPGKAPKSLIYSASYRYSGVPSRFSGSGSGTDFTLTISSLQPEDFATYFCHQYSSYPFTFGQGTKLEIKR
notes: M6-p1625 series
For B13, the results for the Kd in test [1] and in test [2] were 0.266 nM and 0.358 nM, respectively.

B14: APE15091 (antibody, V domains shown)
VH: QVQLVQSGAEVKKPGASVKVSCKASGYTFSRYWINWVRQAPGQGLEWMGEILPGSGSINHNEKFQGRVTMTRDTSTSTVYMELSSLRSEDTAVYYCTRHYGSFDYWGQGTTVTVSS
VL: DIQMTQSPSSLSASVGDRVTITCKASQNVGTDVAWYQQKPGKAPKSLIYSASYRYSGVPSRFSGSGSGTDFTLTISSLQPEDFATYFCHQYSSYPFTFGQGTKLEIKR
notes: M6-p1625 series
In the case of B14, the Kd in test [1] was found to be 0.345 nM.

B15: APE14951 (antibody, V domains shown)
VH: QVQLVQSGAEVKKPGASVKVSCKASGYTFSRYWIEWVRQAPGQGLEWMGEILPGSGSINHNEKFQGRVTMTRDTSTSTVYMELSSLRSEDTAVYYCTRHYGSFDYWGQGTTVTVSS
VL: DIQMTQSPSSLSASVGDRVTITCKASQNVGTDVAWFQQKPGKAPKSLIYSASYRYNGVPSRFSGSGSGTDFTLTISSLQPEDFATYYCHQYSSYPFTFGQGTKLEIKR
notes: M6-p1625 series
Consider B15, for which the dissociation constant Kd worked out at 0.584 nM in test [1] and 0.804 nM in test [2].

B16: APE15085 (antibody, V domains shown)
VH: QVQLVQSGAEVKKPGASVKVSCKASGYTFSRYWIEWVRQAPGQGLEWMGEILPGSGSINHNEKFQGRVTMTRDTSTSTVYMELSSLRSEDTAVYYCTRHYGSFDYWGQGTTVTVSS
VL: DIQMTQSPSSLSASVGDRVTITCKASQNVGTDVAWYQQKPGKAPKSLIYSASYRYSGVPSRFSGSGSGTDFTLTISSLQPEDFATYFCHQYESYPFTFGQGTKLEIKR
notes: M6-p1625 series
For B16, the results for the dissociation constant (Kd) in test [1] and in test [2] were 0.154 nM and 0.158 nM, respectively.

B17: APE15277 (antibody, V domains shown)
VH: QVQLVQSGAEVKKPGASVKVSCKASGYTFISYWIQWVRQAPGQGLEWMGEILPGSGSINHNEKFQGRVTMTRDTSTSTVYMELSSLRSEDTAVYYCTRHYGSFDYWGQGTTVTVSS
VL: DIQMTQSPSSLSASVGDRVTITCKASQNVGTDVAWYQQKPGKAPKSLIYSASYRYSGVPSRFSGSGSGTDFTLTISSLQPEDFATYFCHQYESYPFTFGQGTKLEIKR
notes: M6-p1625 series
As for B17, the Kd was 0.244 nM in test [1] and 0.229 nM in test [2].
